# From IntAct's records for PubMed 31515488
# B1: Homeobox protein VENTX (Homo sapiens), O95231 (parent)
# chain: MRLSSSPPRGPQQLSSFGSVDWLSQSSCSGPTHTPRPADFSLGSLPGPGQTSGAREPPQAVSIKEAAGSSNLPAPERTMAGLSKEPNTLRAPRVRTAFTMEQVRTLEGVFQHHQYLSPLERKRLAREMQLSEVQIKTWFQNRRMKHKRQMQDPQLHSPFSGSLHAPPAFYSTSSGLANGLQLLCPWAPLSGPQALMLPPGSFWGLCQVAQEALASAGASCCGQPLASHPPTPGRPSLGPALSTGPRGLCAMPQTGDAF
# B2: KAT8 regulatory NSL complex subunit 1 (Homo sapiens), Q7Z3B3 (parent)
# chain: MAAMAPALTDAAAEAHHIRFKLAPPSSTLSPGSAENNGNANILIAANGTKRKAIAAEDPSLDFRNNPTKEDLGKLQPLVASYLCSDVTSVPSKESLKLQGVFSKQTVLKSHPLLSQSYELRAELLGRQPVLEFSLENLRTMNTSGQTALPQAPVNGLAKKLTKSSTHSDHDNSTSLNGGKRALTSSALHGGEMGGSESGDLKGGMTNCTLPHRSLDVEHTTLYSNNSTANKSSVNSMEQPALQGSSRLSPGTDSSSNLGGVKLEGKKSPLSSILFSALDSDTRITALLRRQADIESRARRLQKRLQVVQAKQVERHIQHQLGGFLEKTLSKLPNLESLRPRSQLMLTRKAEAALRKAASETTTSEGLSNFLKSNSISEELERFTASGIANLRCSEQAFDSDVTDSSSGGESDIEEEELTRADPEQRHVPLRRRSEWKWAADRAAIVSRWNWLQAHVSDLEYRIRQQTDIYKQIRANKGLIVLGEVPPPEHTTDLFLPLSSEVKTDHGTDKLIESVSQPLENHGAPIIGHISESLSTKSCGALRPVNGVINTLQPVLADHIPGDSSDAEEQLHKKQRLNLVSSSSDGTCVAARTRPVLSCKKRRLVRPNSIVPLSKKVHRNSTIRPGCDVNPSCALCGSGSINTMPPEIHYEAPLLERLSQLDSCVHPVLAFPDDVPTSLHFQSMLKSQWQNKPFDKIKPPKKLSLKHRAPMPGSLPDSARKDRHKLVSSFLTTAKLSHHQTRPDRTHRQHLDDVGAVPMVERVTAPKAERLLNPPPPVHDPNHSKMRLRDHSSERSEVLKHHTDMSSSSYLAATHHPPHSPLVRQLSTSSDSPAPASSSSQVTASTSQQPVRRRRGESSFDINNIVIPMSVAATTRVEKLQYKEILTPSWREVDLQSLKGSPDEENEEIEDLSDAAFAALHAKCEEMERARWLWTTSVPPQRRGSRSYRSSDGRTTPQLGSANPSTPQPASPDVSSSHSLSEYSHGQSPRSPISPELHSAPLTPVARDTPRHLASEDTRCSTPELGLDEQSVQPWERRTFPLAHSPQAECEDQLDAQERAARCTRRTSGSKTGRETEAAPTSPPIVPLKSRHLVAAATAQRPTHR
# B3: Oxidative stress-induced growth inhibitor 1 (Homo sapiens), Q9UJX0 (parent)
# chain: MSSSRKDHLGASSSEPLPVIIVGNGPSGICLSYLLSGYTPYTKPDAIHPHPLLQRKLTEAPGVSILDQDLDYLSEGLEGRSQSPVALLFDALLRPDTDFGGNMKSVLTWKHRKEHAIPHVVLGRNLPGGAWHSIEGSMVILSQGQWMGLPDLEVKDWMQKKRRGLRNSRATAGDIAHYYRDYVVKKGLGHNFVSGAVVTAVEWGTPDPSSCGAQDSSPLFQVSGFLTRNQAQQPFSLWARNVVLATGTFDSPARLGIPGEALPFIHHELSALEAATRVGAVTPASDPVLIIGAGLSAADAVLYARHYNIPVIHAFRRAVDDPGLVFNQLPKMLYPEYHKVHQMMREQSILSPSPYEGYRSLPRHQLLCFKEDCQAVFQDLEGVEKVFGVSLVLVLIGSHPDLSFLPGAGADFAVDPDQPLSAKRNPIDVDPFTYQSTRQEGLYAMGPLAGDNFVRFVQGGALAVASSLLRKETRKPP
# partner: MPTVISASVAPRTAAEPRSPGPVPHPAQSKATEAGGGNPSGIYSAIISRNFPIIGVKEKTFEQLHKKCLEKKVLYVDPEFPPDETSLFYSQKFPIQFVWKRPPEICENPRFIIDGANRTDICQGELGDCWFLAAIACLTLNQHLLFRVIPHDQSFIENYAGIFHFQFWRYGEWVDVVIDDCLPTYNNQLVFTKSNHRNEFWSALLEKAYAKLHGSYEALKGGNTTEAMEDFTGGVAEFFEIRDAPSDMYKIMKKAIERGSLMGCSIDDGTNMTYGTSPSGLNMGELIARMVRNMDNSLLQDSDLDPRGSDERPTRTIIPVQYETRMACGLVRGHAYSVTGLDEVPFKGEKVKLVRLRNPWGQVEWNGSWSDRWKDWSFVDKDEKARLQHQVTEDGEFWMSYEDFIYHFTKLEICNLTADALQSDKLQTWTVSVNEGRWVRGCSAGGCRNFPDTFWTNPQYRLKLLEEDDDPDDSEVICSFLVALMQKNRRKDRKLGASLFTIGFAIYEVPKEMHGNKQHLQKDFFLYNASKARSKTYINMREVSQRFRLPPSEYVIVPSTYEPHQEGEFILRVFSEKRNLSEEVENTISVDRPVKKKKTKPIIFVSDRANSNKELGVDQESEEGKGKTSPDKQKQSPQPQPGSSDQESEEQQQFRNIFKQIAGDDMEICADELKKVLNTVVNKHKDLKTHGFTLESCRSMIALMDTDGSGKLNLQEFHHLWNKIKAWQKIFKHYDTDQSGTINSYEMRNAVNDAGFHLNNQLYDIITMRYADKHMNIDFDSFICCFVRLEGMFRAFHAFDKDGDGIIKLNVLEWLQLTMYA
# B4: Late cornified envelope protein 1B (Homo sapiens), Q5T7P3 (parent)
# chain: MSCQQNQQQCQPPPKCIPKCPPKCLTPRCPPKCPPKCPPVSSCCSVSSGGCCGSSSGGSCGSSSGGCCSSGGGGCCLSHHRRRRSHCHRPQSSGCCSQPSGGSSCCGGGSGQHSGGCC
# partner: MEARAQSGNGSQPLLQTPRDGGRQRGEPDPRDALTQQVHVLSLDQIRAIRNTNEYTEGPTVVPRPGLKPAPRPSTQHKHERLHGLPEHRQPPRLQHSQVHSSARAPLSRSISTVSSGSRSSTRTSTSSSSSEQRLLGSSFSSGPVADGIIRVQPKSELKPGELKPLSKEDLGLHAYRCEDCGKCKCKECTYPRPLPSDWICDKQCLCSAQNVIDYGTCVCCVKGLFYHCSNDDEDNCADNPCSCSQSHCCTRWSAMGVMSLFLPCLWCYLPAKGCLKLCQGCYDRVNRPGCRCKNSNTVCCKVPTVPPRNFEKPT
# Variants of: B1
# Conditions: with rbpms_human RBPMS
row,effect of a mutation on the interaction,Variant
1,with no effect,L42P

# Variants of: B2
# Conditions: with cdr2_human CDR2, Q01850
# cdr2_human CDR2, Q01850, sequence (Q01850 whole entry): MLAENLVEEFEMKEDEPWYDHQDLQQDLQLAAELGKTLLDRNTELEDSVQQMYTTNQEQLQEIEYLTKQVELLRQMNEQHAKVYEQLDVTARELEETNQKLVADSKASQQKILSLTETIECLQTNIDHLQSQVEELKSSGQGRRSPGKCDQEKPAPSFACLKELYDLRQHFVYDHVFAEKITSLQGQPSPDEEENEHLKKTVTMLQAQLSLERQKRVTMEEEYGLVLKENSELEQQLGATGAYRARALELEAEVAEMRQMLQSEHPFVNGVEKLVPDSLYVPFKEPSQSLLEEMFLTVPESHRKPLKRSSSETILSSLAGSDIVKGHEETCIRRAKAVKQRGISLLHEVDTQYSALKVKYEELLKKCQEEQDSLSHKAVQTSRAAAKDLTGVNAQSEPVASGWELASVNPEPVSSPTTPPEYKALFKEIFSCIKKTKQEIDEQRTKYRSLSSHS
row,effect of a mutation on the interaction,Variant
1,with no effect,N225D
2,with no effect,K104T

# Variants of: B2
# Conditions: with traf2_human TRAF2, Q12933
# traf2_human TRAF2, Q12933, sequence (Q12933 whole entry): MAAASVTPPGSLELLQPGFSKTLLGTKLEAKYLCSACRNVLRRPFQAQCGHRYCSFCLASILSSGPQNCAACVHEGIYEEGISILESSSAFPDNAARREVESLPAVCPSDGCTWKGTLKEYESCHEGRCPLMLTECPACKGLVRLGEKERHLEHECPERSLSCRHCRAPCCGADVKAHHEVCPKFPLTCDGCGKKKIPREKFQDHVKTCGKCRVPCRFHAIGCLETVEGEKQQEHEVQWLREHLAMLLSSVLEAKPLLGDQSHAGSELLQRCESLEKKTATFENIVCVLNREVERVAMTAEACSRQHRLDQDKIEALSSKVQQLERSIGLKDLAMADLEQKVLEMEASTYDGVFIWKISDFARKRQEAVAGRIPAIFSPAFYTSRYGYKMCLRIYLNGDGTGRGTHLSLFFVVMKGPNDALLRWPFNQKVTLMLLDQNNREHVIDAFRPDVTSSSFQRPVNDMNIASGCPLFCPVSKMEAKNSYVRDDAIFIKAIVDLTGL
row,effect of a mutation on the interaction,Variant
1,with no effect,N225D
2,with no effect,K104T

# Variants of: B2
# Conditions: with KRT15, P19012
# KRT15, P19012, sequence (P19012 whole entry): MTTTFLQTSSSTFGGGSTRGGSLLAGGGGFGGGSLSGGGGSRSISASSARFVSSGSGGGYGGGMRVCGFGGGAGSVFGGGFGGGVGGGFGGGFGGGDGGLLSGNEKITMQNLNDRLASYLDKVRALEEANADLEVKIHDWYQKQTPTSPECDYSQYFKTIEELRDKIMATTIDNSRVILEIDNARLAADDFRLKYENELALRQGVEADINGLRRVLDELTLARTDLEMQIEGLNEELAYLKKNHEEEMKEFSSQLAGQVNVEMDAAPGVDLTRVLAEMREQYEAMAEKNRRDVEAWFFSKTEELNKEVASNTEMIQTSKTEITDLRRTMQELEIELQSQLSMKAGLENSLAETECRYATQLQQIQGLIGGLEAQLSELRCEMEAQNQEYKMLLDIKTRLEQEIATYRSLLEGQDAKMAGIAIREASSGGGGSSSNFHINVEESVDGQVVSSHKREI
row,effect of a mutation on the interaction,Variant
1,with no effect,N225D
2,with no effect,K104T

# Variants of: B3
# Conditions: with can3_human CAPN3, P20807
row,effect of a mutation on the interaction,Variant
1,with no effect,S236L
2,with no effect,D320N

# Variants of: B4
# Conditions: with spy2_human SPRY2, O43597
row,effect of a mutation on the interaction,Variant
1,with no effect,G108E
2,with no effect,C51Y
